# According to the nanobody polyreactivity screen of Harvey et al. (2022):
# Assay: yeast display, Sf9 membrane polyspecificity reagent, FACS + sequencing; frameworks hold sequencing errors
# In short: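 Sorting gates, low and high (top ~1%), were placed on anti-HA fluorescence to track expression and on streptavidin fluorescence to track reagent binding. A clone's polyreactivity label is taken from the gate it came out of. The reagent was 10% biotinylated, detergent-solubilized Sf9 membrane, applied for 1 hour at 4 °C to galactose-induced yeast display cells.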
row,Sequence,polyreactivity (PSR sort gate)
1,QVQLVESGGGLVQAGGSLRLSCAASGIIFRYNAMGWYRQAPGKERELVADITFSVGSTNYADSVKGRFTISRDNAKNTVYLQMNSLKPEDTAVYYCAAKFHSTYGNDDWGQGTQVTVSS,low polyreactivity
2,QVQLVESGGGLVQAGGSLRLSCAASGIIFRYYAMGWYRQAPGKERELVAAISGRGGSTYYADSVKGRFTISRDNAKNTVYLQMNSLKPEDTAVYYCAIYVSWPLYYYWGQGTQVTVSS,low polyreactivity
3,QVQLVESGGGLVQAGGSLRLSCAASGIIFRYYAMGWYRQAPGKERELVAAITVNGGRTYYADSVKGRFTISRDNAKNNVYLQMNSLKPEVTAVYYCAAYPHRYRVTPYPSVVSLDNYWGQGTQVTVSS,low polyreactivity
4,QVQLVESGGGLVQAGGSLRLSCAASGIIFRYYAMGWYRQAPGKERELVATISWRGGSTYYADSVKGRFTISRDNAKNTVYLQMNSLKPEDTAVYYCAAAISYSARGGKGLGGYWGQGTQVTVSS,high polyreactivity
5,QVQLVESGGGLVQAGGSLRLSCAASGIIFSANAMGWYRQAPGKERELVAAISRDGSTYYADSVKGRFTISRDNAKNTVYLQMNSLKPEDTAVYYCAVDPIYYWRPGYDYWGQGTQVTVSS,low polyreactivity
6,QVQLVESGGGLVQAGGSLRLSCAASGIIFSAYAMGWYRQPPGKERELVAVIDSDGDGTYYADSVKGRFTISRDNAKNTVYLQMNSLKPEDTAVYYCAADYEYTRVEGWFIGFDEYGYWGQGTQVTVSS,low polyreactivity
7,QVQLVESGGGLVQAGGSLRLSCAASGIIFSDNAMGWYRQAPGKERELVAAIDWSGGSTYYADSVKGRFTISRDNAKNTVYLQMNSLKPEDTAVYYSAAEYRDYVPVNDTGDYWGQGTQVTVSS,low polyreactivity
8,QVQLVESGGGLVQAGGSLRLSCAASGIIFSDNAMGWYRQAPGKERELVAAIDWSGGSTYYADSVKGRFTISRDNAKNTVYLQMNSMKPEDSAVYDCAAEYRDYVPVNDTGDYWGQGTQVTVSS,low polyreactivity
9,QVQLVESGGGLVQAGGSLRLSCAASGIIFSDYTMGWYRQAPGKERELVAAITWSGASTYYADSVKGRFTISRDNAKNTVYLQMNSLKPEDTAVYYCAAREYWYPGYVSWFDYWGQGTQVTVSS,high polyreactivity
10,QVQLVESGGGLVQAGGSLRLSCAASGIIFSGYAKGWSRQAPGKERELVAAISYSGASTYYADSVKGRFTISRDNAKNSVYLLMNSLKPEDTAVYFCAADRRYGRYWNGWSYYYWGQGTQVTVSS,high polyreactivity
11,QVQLVESGGGLVQAGGSLRLSCAASGIIFSIYAMGWYRQAPGKERELVAAISGRGGRTYYADSVKGRFTISRDNAKNTVYLQMNSLKPVDTAVYYCNAEYHDLYDYWGQGTQVTVSS,low polyreactivity
12,QVQLVESGGGLVQAGGSLRLSCAASGIIFSKNTMGWYRQAPGKERELVAAISRSGGTSTYYADSVKGRFTISRDNAKNTVYLQMNSLKPEDTAVYYCAAGVPRIGGYYYWGQGTQVTVSS,low polyreactivity
13,QVQLVESGGGLVQAGGSLRLSCAASGIIFSQYAMGWYRQAPGKERELVAGITRSGGSTYYADSVKGRFTISRDNAKNTVYLQMNSLKPEDTAVYYCAAVQRYEYGYWGQGTQVTVSS,high polyreactivity
14,QVQLVESGGGLVQAGGSLRLSCAASGIIFSRNVMGWYRPAPGKERELVAVISGSGGSTYYADSVKGRFTISRDNAKNTVYLQMNSLKPEDSAVYYCAASYEYLWGYDYEYWGQGTQVTVSS,high polyreactivity
15,QVQLVESGGGLVQAGGSLRLSCAASGIIFSSNAMGWYRPAPGKERELVAAISNTGRTNYADSVKGRFTISRDNEKNTVYLQMNSLKPEDTAVYYCDARLSRRYYSYYYWGQGTQVTVSS,high polyreactivity
16,QVQLVESGGGLVQAGGSLRLSCAASGIIFSSYAMGWYRQAPGKERELVAAISWSGGSTYYADSVKGRFTISRDNAKNTVYLQMNSLKPEDTAVYYCAAYPVWYYEYDYWGQGTQVTVSS,low polyreactivity
17,QVQLVESGGGLVQAGGSLRLSCAASGIIFSTYAMGWYRQAPGKERELVAAISSGGRTYYADSVKGRFTISRDNAKNTVYLQMNSLKPEDTAVYYCAASYYRYYSGWTPYYYWGQGTQVTVSS,high polyreactivity
18,QVQLVESGGGLVQAGGSLRLSCAASGIIFSTYAMGWYRQAPGKERELVAAITSTGSTNYADSVKGRFTISRDNAKNTVYLQMNSLKPEDTAVYYCAARYAGPSPTDTGHDYWGQGTQVTVSS,low polyreactivity
19,QVQLVESGGGLVQAGGSLRLSCAASGIIFSWYAMGWYRQAPGKERELVASITIGGNTNYADSVKGRFTISRDNAKNTVYLQMNSLKPEDTAVYYCAAQTFWYGYGGGDYWGEGTQVTVSS,low polyreactivity
20,QVQLVESGGGLVQAGGSLRLSCAASGIIFSWYAMGWYRQAPGKERELVATISGGGGSTYYADSVKGRFTISRDNAKNTVYLQMNSLKPEDTAVYYCAADYWNFNWRYKLYRPYDYWGQGTQVTVSS,high polyreactivity
21,QVQLVESGGGLVQAGGSLRLSCAASGIIFSYNAMGWYRQAPGKERELVAAINSSGGSTNYADSVKGRFTISRDNAKNTVYLQMNSLKPEDTAVYYCAARDATYYGVWRYYGIDDYWGQGTQVTVSS,low polyreactivity
22,QVQLVESGGGLVQAGGSLRLSCAASGIIFSYNAMGWYRQAPGKERELVAAITSIGGRTYYADSVKGRFTISRDNAKNTVYLKMNSLKPEDCAVYYCAVVAAFYNSPEGDYWGQGTQVTVSS,low polyreactivity
23,QVQLVESGGGLVQAGGSLRLSCAASGIIFSYYAMGWYIQAPGKERELVAVINSGGSTYYADSVKGRFTISRDNAKNTVYLQMNSLKPEDTAVYYCAATIFVKFYYWGQGTQVTVSS,low polyreactivity
24,QVQLVESGGGLVQAGGSLRLSCAASGIIFSYYAMGWYRQAPGKERELVAAISSSGVSTNYADSVKGRFTISRDNAKNTVYLQMNSLKPEDTAVYYCNGRGYYWYRPYVNSNGGYWGQGTQVTVSS,high polyreactivity
25,QVQLVESGGGLVQAGGSLRLSCAASGIIFSYYAMGWYRQAPGKERELVAAITWSVGSTDYADSVKGRFTISRDNAKNTVYLQMNSLKPEDTAVYYCAATITTLDWDDRYDYWGQGTQETVSS,low polyreactivity
26,QVQLVESGGGLVQAGGSLRLSCAASGIIFSYYTMGWYRPAPGKERELVAAISARGGRTYYADSVKGRFTISRDNAKNTVYLQMNSLKPEDTAVYYCAASWSTEYYWGQGTQVTVSS,high polyreactivity
27,QVQLVESGGGLVQAGGSLRLSCAASGIIFTDNAMGWYRQAPGKARELVATISWSTDNTYYADSVKGRFTISRDNAKNTVYLQMNSLKPEDTAVYYCAAGWQIIQGSQYDYWGQGTQVTVSS,low polyreactivity
28,QVQLVESGGGLVQAGGSLRLSCAASGIIFTDYAMGWYRQAPGTERELVAAISSGGGSTYYADSVKGRFTISRDNAKYSVYLQMNSLKPDDTAVYYGAAQSSGSYGFDHWGQGTQVTVSS,high polyreactivity
29,QVQLVESGGGLVQAGGSLRLSCAASGIIFTFNARGWDRQAPGKERELVASISITGDTYYADSVKGRFTISRDNAKNTVYLQMNSLKPEDTAVYYCAAEYYFYSRHWYISYDYWGQGTQVTVSS,low polyreactivity
30,QVQLVESGGGLVQAGGSLRLSCAASGIIFTFYGMGWYRQAPGKERELVAAIRTGGSTTYADSVKGRFTISRDNAKNTVYLQMNSLKPEDTAVYYCAAERYWVFHGTISYNYDYWGQGTQVTVSS,low polyreactivity
